According to the nanobody polyreactivity screen of Harvey et al. (2022):

Test: yeast display, Sf9 membrane polyspecificity reagent, FACS + sequencing; frameworks hold sequencing errors
Summary of the method: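 A synthetic nanobody library was expressed on Saccharomyces cerevisiae BJ5465 by galactose induction for 36–48 hours. The library was stained for 1 hour at 4 °C with 10% biotinylated, detergent-solubilized Sf9 membrane reagent and enriched with streptavidin microbeads before FACS. Low and high (top ~1%) gates were set on anti-HA fluorescence for expression and streptavidin fluorescence for reagent binding, and each polyreactivity label reflects the gate of origin.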

Sequence	polyreactivity (PSR sort gate)
QVQLVESGGGLVQAGGSLRLSCASSGSTFVSYAMGWYRQAPGKERELVAGISWSGTRTYYADSVKGRFTISRDNAKNTVYLQMNSLKPEDTAVYYCAALDSSYNWYGYWGQGTQVTVSS	high polyreactivity
QVQLVESGGGLVQAGGSLRLSCASSGSTFVSYVMGWYRQAPGKERELVARITISSGSTRYADSVKGRFTISRDNAKNTVYLQMNSLKPEDTAVSYCAVDAVDAFVFLSWDYDYWGQGTQVTVSS	low polyreactivity
QVQLVESGGGLVQAGGSLRLSCASSGSTIGRNAMGWYRQAPGKERELVASISSGGSTYYADSVKGRFTISRDNAKNTVYLQMESLKPEDTAVYYCARRAYQNWYNYWGQGTQVTVAS	high polyreactivity
QVQLVESGGGLVQAGGSLRLSCASSGSTIVHYAMGWYRQAPGKERELVAGITDTDNHELRRLCEGRFTISRDNAKNTVYLQMNSLKPEDTAVYFCNADDTYYQLGGITGYDYWGQCTQVTVSS	low polyreactivity
QVQLVESGGGLVQAGGSLRLSCASSGSTLFPYAMGWYRQAPGKERELVAAISSRGGRTYYADSVKGRFTISRDNAKNTVYLQMNSLKPEDTAVYYCAAGDDYWGQGTQVTVSS	high polyreactivity
QVQLVESGGGLVQAGGSLRLSCASSGYIFGRYAMGWYRQAPGKERELVAAISSTGDSTYYADSVKGRITISRDNAKNTVYLQMNSLKPEDTAVYYCNAVVPRYSYGRYYYWGQCTQVTVSS	high polyreactivity
QVQLVESGGGLVQAGGSLRLSCASSGYIFRSYAMGWYRQAPGKERELVATISWIGGGTSYADSVKGRFTISRDNAKNTVYLQMNSLKPEDTAVYYCAAGPWAYGRRHAYYSRSFDYWGQGTQVTVSS	high polyreactivity
QVQLVESGGGLVQAGGSLRLSCASSGYTFDYYTMGWYRQAPGKERELVARITASGGSTYYADSVKGRFTISRDNAKNTVYLQMNSLKPEDTSVYYCAKAWYRYSRFDYWGQGTQVTVSS	high polyreactivity
QVQLVESGGGLVQAGGSLRLSCASSGYTLRPNGKGWYRQAPGKERELVAAISSGGSTYYADSVKGRFTISRDNAKNTVYLQMNSLKPEDTAVYYCAAEYWYDYWGQGTQVTVSS	low polyreactivity
QVQLVESGGGLVQAGGSLRLSCASSVIILVQYVMGWYIQAPGKERELVASISRTGGSTNYADSVKGRFTISRDNAKNTVYLQMNSLKPEDTAVYYCSAKKRKIAGVGGDYWGQGTQVTVSS	high polyreactivity
QVQLVESGGGLVQAGGSLRLSCASSVRIFGSNVMGWYRQAPGKERELVASISSGGNTYYADSVKGRFTISRDNAKNTVYLQMNSLKPEDTAVYYCAARRGSAGQWYDYWGQGTQVTVSS	high polyreactivity
QVQLVESGGGLVQAGGSLRLSCASSVYIFVSNTKGWYRPAPGKERELVAAISWSGGSTNYADSVKGRFTISRDKAKNTVYLLMNSLKPEDTAVYYCNADDASHYYFRDDYWGQGTQVTVSS	low polyreactivity
QVQLVESGGGLVQAGGSLRLSCASYGRTFYDYAMGWYRPAPGKERELVAGIRWSGGSTYYADSVKGRFTISRDNAKNTVYLQLNRLKPEDTAVYYCAADWFAGVAADVEYDYWGQGTQVTVSS	low polyreactivity
QVQLVESGGGLVQAGGSLRLSCATGSIFGYNAMGWYRQAPGKERELVAAITSGGSTYYADSVKGRFTISRDNAKNTVYLQMNSLKPEDTAVYYCNRDDYNTAYRDASGYWGQGTQVTVSS	low polyreactivity
QVQLVESGGGLVQAGGSLRLSCATSGFTFVYNAMGWYRQAPGKESELVAAINWSGGRTYYADSVKGRFTISRDNAKNTVYLQMNSLKPEDTAVYYCAAGYSPYKGSAGYYWGQGTQVTVSS	low polyreactivity
QVQLVESGGGLVQAGGSLRLSCATSGSTFNDYDMGWYRQAPGKERELVAAISSSVSTYYADSVKGRFTISRDNAKNTVYLQMNSLKQEDTAVYYCAADYTGVCRYDYWGQGTLVTVSS	low polyreactivity
QVQLVESGGGLVQAGGSLRLSCATSRSTFVLYAMGWYRQAPGKERELDAAISGGATTTYADSVKGRFTISRDNAKNTVYLQMNSLKPEVTAVYYCAADFSTYVVSGAALDYWGQGTQVTLSS	low polyreactivity
QVQLVESGGGLVQAGGSLRLSCDASGAIFFSYAMRSYREAPGKERELVATITAGGGSTNYADSVKGRFTISRDNAKNTVYLQMNSLKAEDTAVYYSAAKRLSWHRYGYWGQGSQVTVSS	low polyreactivity
QVQLVESGGGLVQAGGSLRLSCDASGFIFDEYAMGWYRPAPGEERELVAAINWRGGSTYYADSVKGRFTISRDNAKNTVYLQMNSLKPEDTAVYYCAARNVYVWYDYWGQGTQVTVSS	low polyreactivity
QVQLVESGGGLVQAGGSLRLSCDASGFIFGRNAMGWYRQAPGKERELVAGISSSGFRTFYADSVKGRFTISRDNAKNTDYLQMNSLKQEDTAVYYCAAEIRYYKYGSYYYWGKGTQVTVSS	high polyreactivity
QVQLVESGGGLVQAGGSLRLSCDASGFIFNAYAMGWYRQAPGKERELVAAISTRGSNTYYADSVKGRFTISRDNAKNTVYLQMNSLKPDDTAVYYCAARGYVTFSKSNYWGQGTQVTVSS	high polyreactivity

Sequence	polyreactivity (PSR sort gate)
QVQLVESGGGLVQAGGSLRLSCDASGFIIARNAMGWYRQAPGKERELVAAISASGGRTYYADSVKGRFTISRDNAKNTVYLQMNSLKPEDTAVYYCAARRDGRSGSYNYWGQGTQVTVSS	high polyreactivity
QVQLVESGGGLVQAGGSLRLSCDASGFISRYAMGWYRQAPGKERELVAAINRSGGRTYYADSVKGRFTISRDNAKNTVYLQMNSLTPEDTAVYYCAALRGRYYGVLGEYWGQCTQVTVSS	high polyreactivity
QVQLVESGGGLVQAGGSLRLSCDASGFTFATYAMGRYRQAPGKERELVAAISSGGYTYYADSVKGRFTISRDNAKNTVYLQMNSLKPEDTGVYYCNVSIGLFYLWYFNRYYYWGQGTQVTVSS	high polyreactivity
QVQLVESGGGLVQAGGSLRLSCDASGFTFKTNAMGWYRQAPGKERELVAAINRSGGSTYYADSVKGRFTISRDNAKNTVYLQMNSLKPEDTAVYYCATRSYLPGVRRGYDYWGQGTQVTVSS	high polyreactivity
QVQLVESGGGLVQAGGSLRLSCDASGFTLAWNARGWSRQAPRKERELVATISRSGSSTSYADSVKGRFTISRDNAKNTVYLQMNSLKPEDTAVYYCAKSGRYGFWGQGTQVTVSS	high polyreactivity
QVQLVESGGGLVQAGGSLRLSCDASGGTFVHNAMGWYRQAPGKERELVAAISWSGGSTYYADSVKGRFTISRDNATNTVYLQMNSLKPEDTAVNYCAADLPDYKDIFDSWGQGTQVTLSS	low polyreactivity
QVQLVESGGGLVQAGGSLRLSCDASGIIFFIYTMGWYRQAPGKERELVAVITRGGRTKYADSVKGRLTISRDNAKNTVFLQMNRLNPEDNAVYYCAAKGSRSYYWGQGTHVTVSS	low polyreactivity
QVQLVESGGGLVQAGGSLRLSCDASGIIFPYYAMGWYRQAPGKERELVAGISSSGGITYADSVKGRFTISRDNAKNTVYLQMNSLNPEDTAVYYCNAEYQWLEYDYWGQGTQVTVSS	low polyreactivity
QVQLVESGGGLVQAGGSLRLSCDASGIIFYYNAMGWYRQAPGKERELVDRINSGGSTNYADSVKGRFTISRDNAKNTVDFQMTSMKPEDTAVYYCAARVRRWSYYGALFEYWGQGTQVTVSS	low polyreactivity
QVQLVESGGGLVQAGGSLRLSCDASGITIRLYGMGWYRQAPGTERELVATITRDGRTYYADSVKGRFTISRDNAKNTVYLQMNSLKPEDTGVYYCARPARYSYGDGYWGQGTEVTVSS	low polyreactivity
QVQLVESGGGLVQAGGSLRLSCDASGLTFDQYAMGWYRQGPGKERELVAAISGSDSTYYADSVKGRFTISRDNAKNTVYLQMNSLKPEDTAVYYCAASGDYVNIITGERFDARLYDYWGQGTQVTVSS	low polyreactivity
QVQLVESGGGLVQAGGSLRLSCDASGNIFSDYTMGWYRQAPGKERELVAAISGDGGTTYYADSVKGRFTISRDNAKNTVYLQMNSLNPEDTAVYYCAADGYYDAYDQFFIVYYEYDYWGQGTQVTVSS	low polyreactivity
QVQLVESGGGLVQAGGSLRLSCDASGNIFSWNTMGWYRKAPGKEWELVAAITFRVTRTFYADSVKGRFTISRDNAKNTVYFLMNSLNPEDTAVYYCAARYYYSYSLGYDYWGQGTQVTVSS	high polyreactivity
QVQLVESGGGLVQAGGSLRLSCDASGNTFLYNTMGWYRQAPGKEREFVAAISGSGGSTYYADSVKGRFTISRDNAKYTVYLQMNSLKPEDTAVYYCNALWRRRKYDYWGEGTQVTVSS	high polyreactivity
QVQLVESGGGLVQAGGSLRLSCDASGNTFRGYAMGWYRQAPGKERELVAAITSGGRTYYADSVKGRFTISRDNAKNTVYLQMNSLKPEDTAVYYCNAVLGRYVTYNYWGQGTQVTVSS	high polyreactivity
QVQLVESGGGLVQAGGSLRLSCDASGRIFAYYTMGWNRQAPGKERELVAAINQSGGSTYYADSVKGRITISRDNAKNTDYLQMNILKPEDTAVYYCAAKRYSMYARRYAYVYWGQVTQVTVSS	low polyreactivity
QVQLVESGGGLVQAGGSLRLSCDASGRIFHGNAMGWYRQAPGKEREFVAAITYGGGSTYYADSVKGRFTISRDNAKNTVYLQMNSLKPEDTAVYYCNARGARSNGVRGYYSKLNYWGQGTQVTVSS	high polyreactivity
QVQLVESGGGLVQAGGSLRLSCDASGRIFLDYVMGWYRQAPGKERELVAAISWSGDRTDYADSVKGRFTISRDNAKNTVYLQMNSLKPEDTAVYYCATTWYFAYSDDYKFDYWGQGTQVTVSS	low polyreactivity
QVQLVESGGGLVQAGGSLRLSCDASGRIFLHYAMRLYRQAPGTERELVAAISRSGGSTYYADSVKGRFTISRDNAKNTVYLQMNSLKPEDTAVYYCAADGPGDYLTLEWYWFTYYYWGQGTQVTVSS	high polyreactivity
QVQLVESGGGLVQAGGSLRLSCDASGRIFLTNAMAWYRQAPGKERELVAAITSGVSTYYADSVKGRFTISRDNAKNTVYLQMNSLKPEDTAVYYCNADTDRYWPYEYDYWGQGTQVTVSS	low polyreactivity
